Assays:
[1] = biological target: T1, Cre recombinase monomer with Y324V mutation
T1 chain: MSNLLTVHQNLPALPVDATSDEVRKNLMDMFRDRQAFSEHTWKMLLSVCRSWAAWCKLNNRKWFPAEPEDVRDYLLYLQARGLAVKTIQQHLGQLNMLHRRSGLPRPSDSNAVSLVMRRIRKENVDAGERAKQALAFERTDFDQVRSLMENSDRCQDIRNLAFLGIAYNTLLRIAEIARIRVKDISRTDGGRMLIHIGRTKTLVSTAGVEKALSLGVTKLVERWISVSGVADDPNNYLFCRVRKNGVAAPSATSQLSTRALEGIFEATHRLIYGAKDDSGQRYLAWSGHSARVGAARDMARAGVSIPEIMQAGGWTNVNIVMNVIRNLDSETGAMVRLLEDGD

[2] = biological target: T2, Cre recombinase monomer with W315S mutation
T2 chain: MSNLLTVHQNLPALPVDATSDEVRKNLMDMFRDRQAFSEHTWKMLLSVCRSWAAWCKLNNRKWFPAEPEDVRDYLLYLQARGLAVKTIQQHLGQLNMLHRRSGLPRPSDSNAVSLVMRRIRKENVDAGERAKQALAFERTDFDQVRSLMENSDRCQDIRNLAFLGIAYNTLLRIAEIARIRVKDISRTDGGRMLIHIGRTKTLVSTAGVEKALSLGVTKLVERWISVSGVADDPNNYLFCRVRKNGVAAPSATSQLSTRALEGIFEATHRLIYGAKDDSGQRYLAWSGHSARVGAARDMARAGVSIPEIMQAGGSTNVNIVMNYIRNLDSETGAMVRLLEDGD

[3] = biological target: T3, Cre recombinase monomer with Y324K mutation
T3 chain: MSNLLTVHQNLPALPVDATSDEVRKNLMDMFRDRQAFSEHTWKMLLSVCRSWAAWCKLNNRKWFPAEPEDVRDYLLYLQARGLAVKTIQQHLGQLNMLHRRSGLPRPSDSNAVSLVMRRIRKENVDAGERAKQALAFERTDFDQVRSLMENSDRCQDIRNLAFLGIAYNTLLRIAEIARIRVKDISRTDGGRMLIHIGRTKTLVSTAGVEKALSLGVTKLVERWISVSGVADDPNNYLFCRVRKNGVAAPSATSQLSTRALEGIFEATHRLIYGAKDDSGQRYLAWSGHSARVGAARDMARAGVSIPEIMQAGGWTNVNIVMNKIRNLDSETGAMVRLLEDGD

[4] = biological target: T4, Cre recombinase monomer with W315M mutation
T4 chain: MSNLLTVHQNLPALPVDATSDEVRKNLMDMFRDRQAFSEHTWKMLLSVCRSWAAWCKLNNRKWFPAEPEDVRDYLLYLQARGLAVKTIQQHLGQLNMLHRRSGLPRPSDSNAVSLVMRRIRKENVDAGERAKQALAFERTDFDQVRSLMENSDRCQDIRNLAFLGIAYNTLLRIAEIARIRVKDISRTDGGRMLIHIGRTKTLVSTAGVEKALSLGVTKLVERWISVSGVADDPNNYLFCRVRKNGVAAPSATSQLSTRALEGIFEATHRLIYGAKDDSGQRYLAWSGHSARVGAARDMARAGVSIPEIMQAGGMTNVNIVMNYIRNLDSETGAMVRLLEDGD

[5] = biological target: T5, Cre recombinase monomer with Y324M mutation
T5 chain: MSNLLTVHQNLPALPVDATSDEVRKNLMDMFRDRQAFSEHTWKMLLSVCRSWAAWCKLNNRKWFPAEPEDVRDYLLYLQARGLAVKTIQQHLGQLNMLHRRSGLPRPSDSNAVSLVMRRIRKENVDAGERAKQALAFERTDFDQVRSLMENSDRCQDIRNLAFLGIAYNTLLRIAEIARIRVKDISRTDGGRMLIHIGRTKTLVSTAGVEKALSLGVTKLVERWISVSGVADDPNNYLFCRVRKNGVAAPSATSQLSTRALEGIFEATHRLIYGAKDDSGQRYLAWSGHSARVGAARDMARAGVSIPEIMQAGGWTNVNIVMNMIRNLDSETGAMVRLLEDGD

[6] = biological target: T6, Cre recombinase monomer with Y324A mutation
T6 chain: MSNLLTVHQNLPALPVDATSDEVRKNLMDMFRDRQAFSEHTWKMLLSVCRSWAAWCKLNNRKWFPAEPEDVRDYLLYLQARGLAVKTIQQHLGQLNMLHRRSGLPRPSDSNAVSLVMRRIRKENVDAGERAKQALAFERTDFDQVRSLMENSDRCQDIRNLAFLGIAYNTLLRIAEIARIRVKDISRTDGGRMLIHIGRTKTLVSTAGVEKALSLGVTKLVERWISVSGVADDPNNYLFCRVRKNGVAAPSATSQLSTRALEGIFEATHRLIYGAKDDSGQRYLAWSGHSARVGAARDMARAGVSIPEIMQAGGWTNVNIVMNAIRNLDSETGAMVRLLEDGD

[7] = biological target: T7, Cre recombinase monomer with W315L mutation
T7 chain: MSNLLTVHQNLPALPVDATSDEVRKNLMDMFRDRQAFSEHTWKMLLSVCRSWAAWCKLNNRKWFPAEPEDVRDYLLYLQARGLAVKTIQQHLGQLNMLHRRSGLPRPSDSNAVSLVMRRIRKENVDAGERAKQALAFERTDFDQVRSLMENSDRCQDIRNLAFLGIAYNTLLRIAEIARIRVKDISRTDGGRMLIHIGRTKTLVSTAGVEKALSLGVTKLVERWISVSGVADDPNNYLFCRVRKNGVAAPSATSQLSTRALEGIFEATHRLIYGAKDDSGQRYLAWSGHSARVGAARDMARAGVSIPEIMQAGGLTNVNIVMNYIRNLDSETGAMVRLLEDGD

[8] = biological target: T8, Cre recombinase monomer with Y324T mutation
T8 chain: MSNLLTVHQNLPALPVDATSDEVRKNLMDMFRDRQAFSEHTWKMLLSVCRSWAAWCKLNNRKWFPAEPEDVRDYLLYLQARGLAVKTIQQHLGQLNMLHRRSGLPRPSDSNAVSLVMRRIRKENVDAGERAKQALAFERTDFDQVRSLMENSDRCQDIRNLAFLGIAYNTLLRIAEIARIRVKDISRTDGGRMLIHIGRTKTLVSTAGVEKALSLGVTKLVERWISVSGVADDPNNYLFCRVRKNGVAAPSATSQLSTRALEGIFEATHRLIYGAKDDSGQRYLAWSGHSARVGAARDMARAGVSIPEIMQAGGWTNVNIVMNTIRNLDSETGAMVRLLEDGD

B1: Cre recombinase monomer with Q311R mutation (protein)
chain: MSNLLTVHQNLPALPVDATSDEVRKNLMDMFRDRQAFSEHTWKMLLSVCRSWAAWCKLNNRKWFPAEPEDVRDYLLYLQARGLAVKTIQQHLGQLNMLHRRSGLPRPSDSNAVSLVMRRIRKENVDAGERAKQALAFERTDFDQVRSLMENSDRCQDIRNLAFLGIAYNTLLRIAEIARIRVKDISRTDGGRMLIHIGRTKTLVSTAGVEKALSLGVTKLVERWISVSGVADDPNNYLFCRVRKNGVAAPSATSQLSTRALEGIFEATHRLIYGAKDDSGQRYLAWSGHSARVGAARDMARAGVSIPEIMRAGGWTNVNIVMNYIRNLDSETGAMVRLLEDGD
Median dimer activity (recombination on loxP) [1]: 90%
Median dimer activity (recombination on loxP) [2]: 37%
Median dimer activity (recombination on loxP) [3]: 85%
Median dimer activity (recombination on loxP) [4]: 95%
Median dimer activity (recombination on loxP) [5]: 96%
Median dimer activity (recombination on loxP) [6]: 93%
Median dimer activity (recombination on loxP) [7]: 68%
Median dimer activity (recombination on loxP) [8]: 85%

From patent US20230183713A1, “SITE-SPECIFIC RECOMBINASES FOR EFFICIENT AND SPECIFIC GENOME EDITING” (TECHNISCHE UNIVERSITÄt DRESDEN, published 2023)
